Reference: patent US20250195685A1 (CAPSTAN THERAPEUTICS, published 2025)

Legend:
[1] = target: T1, human CD8αα homodimer, recombinant protein (Acro Biosystems) (human, UniProt P01732 22-182); experiment: SPR (Biacore 8K), antibody captured by anti-human Fc, CD8 as analyte, 1:1 fit, 25 °C
T1 construct: also called CD8αα antigen; biotinylated CD8α recombinant protein (CDA-H82E3)
Method: (§1) Except for cynomolgus CD8αβ heterodimer, binding was analyzed with a two-fold dilution series of recombinant CD8αα homodimer or CD8αβ heterodimer protein from 200 nM to 6.25 nM. For cynomolgus CD8αβ heterodimer, binding was analyzed with a two-dilution series from 400 nM to 12.5 nM.. The global fitting was performed with a 1:1 fitting model using GatorOne software as described below.
(§2) Surface plasmon resonance (SPR) assays were performed using a Biacore 8K SPR instrument (Cytiva) in a running buffer containing 1×HBS-N(Cytiva) and 0.05% Tween-20 at 25° C. The CBD1033 antibody was captured by anti-human IgG (Fc) antibody (Cytiva) immobilized on a CM5 sensor chip (Cytiva) at a density within 40-50 and 80-100 response units (RU) for kinetic measurements with CD8αα and CD8αp, respectively. To measure the binding kinetics, serial two-fold dilutions of recombinant CD8 protein were prepared in the running buffer were injected into the flow cells at […], with the concentration ranging from 200 to 6.25 nM (successive 1:2 dilutions). The association data was collected for 180 s followed by a 1200 s dissociation step. At the end of each binding cycle, the sensor surface was regenerated with a 3M MgCl₂ buffer. For cynomolgus macaque CD8αβ heterodimer, the binding kinetics were assessed with the same experimental parameters, except the concentration ranges from 400 to 12.5 nM. Sensorgrams were generated, and background-subtracted with the blank running buffer. The binding kinetic parameters were analyzed and determined with a standard 1:1 monovalent binding (Langmuir) model using BIAcore Evaluation software (Cytiva).

[2] = target: T2, cynomolgus macaque CD8αα homodimer, recombinant protein (cynomolgus macaque); experiment: as above
T2 construct: also called cynomolgus CD8αα homodimer
Method: as §1, §2

[3] = target: human CD8αβ heterodimer, recombinant protein (human, UniProt P01732 22-182; P10966 22-170, limits assumed); experiment: as above
Method: as §1, §2

[4] = target: T3, cynomolgus macaque CD8αβ heterodimer, recombinant protein (cynomolgus macaque); experiment: as above
T3 construct: In BLI coupled directly to amine-reactive sensor tips; also called cynomolgus CD8αβ heterodimer
Method: as §1, §2

[5] = target: T4, human CD8 on cells (CD8-overexpressing HEK293T cells, SupT1, HPB-ALL, human T cells, transfected HEK293 of … (human, UniProt P01732 22-235)); experiment: flow cytometry on SupT1 cells; SupT1 cells
T4 construct: whole, on cells; also called cell surface CD8
Method: To obtain the results shown in FIG. 6, SupT1 (ATCC #CRL-1942) and HPB-ALL (DSMZ; ACC-483) were cultured in RPMI medium supplemented with 10% Fetal Bovine Serum (#97068-085; Avantor). To determine EC₅₀ values of cell binding from the anti-CD8α antibody, 2×10⁵ total cells were transferred to a V bottom 96-well culture plate (Corning). Cells were washed twice with Cell Staining buffer (#420201, Biolegend). The anti-CD8α antibody was diluted in four-fold antibody titration series from 60 μg/mL to […] into Cell Staining buffer. Cells were stained with each diluted antibody solution for 30 minutes on ice. Cells were then washed three times with Cell Staining buffer and primary antibody binding was detected by staining with anti-human Fc BV421 conjugate antibody (#410704, Biolegend) at 1:200 dilution for 30 minutes on ice. eFluor 780 Fixable Viability dye (eBioscience) at a 1:4000 dilution were also included in the detection antibody solutions. […] Flow cytometry data was analyzed by Flowjo 10 (Becton, Dickinson & Company) to measure the geometric median fluorescence intensity (gMFI) of the on-cell binding from each antibody. The gMFI values were normalized with the gMFI measured in the sample stained with only the secondary detection antibody and plotted against the concentration of the added antibodies. […]

T1 sequence (P01732 22-182 limits assumed): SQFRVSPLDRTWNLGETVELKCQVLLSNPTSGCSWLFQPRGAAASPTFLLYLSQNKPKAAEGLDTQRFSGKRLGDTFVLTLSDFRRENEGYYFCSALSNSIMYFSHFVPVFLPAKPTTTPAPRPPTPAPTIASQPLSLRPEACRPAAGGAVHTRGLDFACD
Sequence of human CD8αβ heterodimer, recombinant protein (P01732 22-182 limits assumed, chain 1 of 2): as the sequence (P01732 22-182 limits assumed) above
Sequence of human CD8αβ heterodimer, recombinant protein (P10966 22-170 limits assumed, chain 2 of 2): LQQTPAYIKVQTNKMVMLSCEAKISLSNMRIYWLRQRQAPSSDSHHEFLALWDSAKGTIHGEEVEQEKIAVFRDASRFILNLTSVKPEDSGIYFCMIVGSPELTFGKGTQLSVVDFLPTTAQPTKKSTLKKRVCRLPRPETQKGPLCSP
T4 sequence (P01732 22-235): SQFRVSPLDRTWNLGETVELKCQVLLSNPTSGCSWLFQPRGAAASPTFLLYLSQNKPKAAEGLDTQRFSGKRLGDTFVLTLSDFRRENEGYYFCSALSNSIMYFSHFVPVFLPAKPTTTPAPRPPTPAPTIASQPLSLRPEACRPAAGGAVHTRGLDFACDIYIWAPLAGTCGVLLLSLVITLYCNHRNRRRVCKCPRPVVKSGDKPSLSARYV

B1: CBD1033 whole antibody, human IgG1 with Fc-silencing mutations L234A, L235A and P329A (CBD1033-hIgG1-LALAPA) (antibody, V domains shown)
VH: QVQLVQSGAEVKKPGASVKVSCKASRYTFTDYNLHWVRQAPGQGLEWMGFIYPYNGGTGYAQKFQGRVTMTVDTSTSTAYMELSSLRSEDTAVYYCARDHRYNEGVSFDYWGQGTTVTVSS
VL: DIQLTQSPSSLSASVGDRATITCRASESVDGFGNSFMNWYQQKPGKAPKLLIYLASNLESGVPSRFSGSGSGTDFTLTISSVQPEDFATYYCQQNNEDPYTFGQGTKLEIKR
notes: On tLNPs the antibody was SATA-modified or AJICAP-thiolated (CBD1033.29) and conjugated to the LNP; also called CBD1033.3; CBD1033 IgG1
With B1 the Kd [1] was 2.46 nM, the koff [1] was 0.000289 s⁻¹ and the kon [1] was 117000 M⁻¹ s⁻¹. The Kd [2] was 5.43 nM, the koff [2] was 0.000271 s⁻¹ and the kon [2] was 50000 M⁻¹ s⁻¹. The Kd [3] was 8.99 nM, the koff [3] was 0.00111 s⁻¹ and the kon [3] was 124000 M⁻¹ s⁻¹. The Kd [4] was 31 nM, the koff [4] was 0.00114 s⁻¹ and the kon [4] was 36800 M⁻¹ s⁻¹. For the same binder, the EC50 [5] was 0.312 µg/mL.
